Data from US9539315B2, “Methods, agents and peptides for inhibiting matrix metalloproteinase-2 signaling” (New York University, priority 2011, dated 2017).
Entries after “also recorded” stand apart in the source; their conditions may differ.

Key:
DCs = experiment: Inflammatory cytokine secretion by DCs (cytokine bead array); format: cell-based, human; settings: MMP-2 0.5 and 5 mg/ml, active or inactive; supernatants after eighteen hours
Experimental: DCs were exposed to MMP-2 (0.5 and 5 mg/ml) in various forms: active, heat-inactivated (HI), inhibited by a specific inhibitor (IMMP-2), PEX (last third of MMP-2, amino acids 445-635 of SEQ ID NO: 1), overlapping peptides (20-mer) spanning MMP-2, or controls. Eighteen hours later, supernatants were harvested and TNFα, IL-6, IL-8 and […] levels were measured by cytokine bead array.
(§1) PBMCs were purified from healthy-(HD) or cord blood- (CB) donors and plated at 40×10^6 cells/10 mL/dish in complete IMDM with 5% PHS. Cells were allowed to adhere for 2 h at 37° C. Non-adherent cells were removed. The monocyte-enriched fraction was supplemented with 100 UI/mL rhGMCSF and 300 UI/mL rhIL-4 (R&D Systems) on days 0, 2 and 4. Immature DCs were harvested on day 5 and matured using poly(I:C) at 5 μg/mL/10^6 DCs (Amersham). Secretion of IL-12p70, TNFα, IL-1β, IL-6, IL-8 and IL-10 was assessed on both immature and mature DCs using the Human Inflammatory Cytokine Cytometric Bead Array (BD Pharmingen).

NF-κB pathway = experiment: p50 nuclear translocation / NF-κB activation in DCs (ELISA of cytosolic and nuclear fractions); format: cell-based, human
Experimental: A) DCs were exposed to MMP-2 […] or zymosan […], a known activator of NF-κB that acts via TLR2, for the indicated time. Cytosolic and nuclear fractions were isolated and p50 contents were measured by ELISA. […] C) OX40L over-expression on DCs induced by MMP-2 is inhibited by an inhibitor of NEMO, the NEMO binding domain (NBD) peptide, but not by the corresponding negative control, a NBD mutant.
as §1
Activation of T cell clones (10,000 cells/100 μL/well), polyclonal T cell populations (100,000 cells/100 μL/well), and DCs (50,000 cells/100 μL/well) can be determined by ELISA. IFNγ (BioSource), TNFα (BioSource), IL-4 (BioSource), IFNβ (VeriKine; PBL interferon source) and MCP-3 (DuoSet; R&D Systems) contents in supernatants were measured according to the manufacturer's instructions. p50 was measured in cytosolic and nuclear fractions (fractions separated using the nuclear separation kit from Active motif) by ELISA (Active motif).

human TLR-2 = molecular target: T1, human TLR-2 (Homo sapiens, UniProt O60603); experiment: HEK-Blue-hTLR2 NF-κB SEAP reporter assay; format: cell-based; settings: MMP-2 5 mg/ml; twenty hours; with/without TLR2 blocking antibody
T1 construct: host or cells: HEK293 (HEK-Blue-hTLR2 cells)
T1 sequence (O60603 21-784): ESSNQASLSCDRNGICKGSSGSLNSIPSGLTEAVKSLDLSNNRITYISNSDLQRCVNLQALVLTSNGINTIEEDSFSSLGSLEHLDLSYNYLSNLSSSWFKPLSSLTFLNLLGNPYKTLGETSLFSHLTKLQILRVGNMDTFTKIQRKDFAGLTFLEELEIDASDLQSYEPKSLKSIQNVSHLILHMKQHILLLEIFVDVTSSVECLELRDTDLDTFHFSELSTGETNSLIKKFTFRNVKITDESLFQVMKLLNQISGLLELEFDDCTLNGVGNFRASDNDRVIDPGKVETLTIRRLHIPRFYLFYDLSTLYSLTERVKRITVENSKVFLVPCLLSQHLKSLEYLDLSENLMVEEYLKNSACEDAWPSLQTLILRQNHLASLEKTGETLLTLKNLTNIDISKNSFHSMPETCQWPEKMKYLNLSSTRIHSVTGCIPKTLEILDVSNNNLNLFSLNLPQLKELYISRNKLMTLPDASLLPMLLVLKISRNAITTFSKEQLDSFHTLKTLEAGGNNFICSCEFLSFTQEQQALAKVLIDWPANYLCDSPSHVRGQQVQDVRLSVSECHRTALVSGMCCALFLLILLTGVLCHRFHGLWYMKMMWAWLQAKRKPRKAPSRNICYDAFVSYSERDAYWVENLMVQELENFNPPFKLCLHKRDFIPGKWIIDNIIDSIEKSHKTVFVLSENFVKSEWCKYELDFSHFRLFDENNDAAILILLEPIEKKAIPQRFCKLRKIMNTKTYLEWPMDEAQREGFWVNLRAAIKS
Experimental: A) DCs were exposed to various TLR agonists for 2 days before cells were stained for OX40L. […] B) TLR2-transfected and engineered HEK cells were incubated with MMP-2 (5 mg/ml) or various controls. All conditions were also tested in the presence of a blocking antibody for TLR2. TNFα was used to activate NF-κB in a TLR-independent manner. Twenty hours later, NF-κB activation was measured.
TLR2-transfected and engineered HEK cells were incubated with MMP-2 (5 mg/ml), TLR2 agonists, recombinant PEX and 3 pools of overlapping 20-mers covering MMP-2. OLP1: mix of 22 overlapping peptides covering MMP-2 from amino-acid 1 to 220; OLP2: mix of 22 overlapping peptides covering MMP-2 from amino-acid 210 to 440; OLP3: mix of 22 overlapping peptides covering MMP-2 from amino-acid 450 to 660. Twenty hours later, NF-κB activation was measured. Neither PEX nor the peptides triggered NF-κB signaling.
TLR-2-transfected (stably) HEK-Blue™ Cells represent a very efficient high throughput reagent for screening due to an easy read-out. […] Levels of SEAP can be readily determined with QUANTI-Blue™, a detection medium that turns purple/blue in the presence of alkaline phosphatase. […] Inhibition of NF-κB activation by any agents/molecules can be assessed and confirmed in DCs (which endogenously express TLR2 or are engineered to express exogenous TLR2) in order to corroborate the initial screening results in a native or more natural context. […] TLR-2-expressing cells, such as those described herein, can be incubated with agents/molecules and molecular interactions assessed using methods, such as, e.g., co-immunoprecipitation of MMP-2 and TLR-2 from the cell lysates. […] Additional methods can be used to evaluate if MMP-2 and TLR-2 interact directly, including other affinity-based methods (e.g., affinity chromatography or panning), competitive inhibition assays, and various visualization techniques, such as fluorescence resonance energy transfer (FRET) and others which are known in the art. […]

B1: matrix metalloproteinase-2 (protein)
chain: YNFFPRKPKWDKNQITYRIIGYTPDLDPETVDDAFARAFQVWSDVTPLRFSRIHDGEADIMINFGRWEHGDGYPFDGKDGLLAHAFAPGTGVGGDSHFDDDELWTLGEGQVVRVKYGNADGEYCKFPFLFNGKEYNSCTDTGRSDGFLWCSTTYNFEKDGKYGFCPHEALFTMGGNAEGQPCKFPFRFQGTSYDSCTTEGRTDGYRWCGTTEDYDRDKKYGFCPETAMSTVGGNSEGAPCVFPFTFLGNKYESCTSAGRSDGKMWCATTANYDDDRKWGFCPDQGYSLFLVAAHEFGHAMGLEHSQDPGALMAPIYTYTKNFRLSQDDIKGIQELYGASPDIDLGTGPTPTLGPVTPEICKQDIVFDGIAQIRGEIFFFKDRFIWRTVTPRDKPMGPLLVATFWPELPEKIDAVYEAPQEEKAVFFAGNEYWIYSASTLERGYPKPLTSLGLPPDVQRVDAAFNWSKNKKTYIFAGDKFWRYNEVKKKMDPGFPKLIADAWNAIPDNLDAVVDLQGGGHSYFFKGAYYLKLENQSLKSVKFGSIKSDWLGC
inflammatory cytokine secretion by DCs (TNFα, IL-6, IL-8, IL-1β) (DCs): secrete inflammatory cytokines; also recorded: significantly expressed | p50 translocation in the nucleus (NF-κB pathway; DCs exposed to MMP-2 (5 μm/ml) or zymosan (10 μm/ml), p50 by ELISA): triggers p50 translocation in the nucleus; also recorded: induce p50 translocation in the nucleus after 30 min | NF-κB activation in DCs (NF-κB pathway; active vs heat-inactivated MMP-2): NF-κB activation (FIGS. 2A, 2B and 3) at similar levels | NF-κB activation in TLR2-transfected HEK cells (human TLR-2): activates NF-κB through TLR-2 triggering; also recorded: activate NF-κB in a TLR2-dependent manner
